Results on 12 sequences are retold here after the supplement of paper PMC9170038.

The test system of the data set is MS2 coat protein. Description: apparent KD of MS2 coat protein; higher = weaker reporter binding. The settings on record: Eterna round: R107. The essentials: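 SNAP-549-labelled MS2 coat protein was titrated onto designed RNA switches that had been transcribed on-chip from Illumina sequencing clusters. Amounts doubled from 0.7 or 1.5 nM to 3 µM in 100 mM Tris-HCl pH 7.5, 80 mM KCl, 4 mM MgCl2, with constant ligand or without. Apparent KD is the median per design of normalised cluster binding-curve fits.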

Where [1] appears, read: input ligand: theophylline 20 uM.
Setting [2] is: input ligand: theophylline 2 mM.
Where [3] appears, read: input ligand: tryptophan 2.4 mM.

Consider “UUGGGUUUGUGAAGGAGCGGGAAAGUUUUAUAGUGGAUCCUAACAUGAGGAUCACCCAUGUCCCAGGUAGGUCGCGCGGGUUUGG [12.R]”, for which the “apparent KD of MS2 coat protein” value (input ligand: arginine 13.2 mM) amounted to 60.7 nM; the “apparent KD of MS2 coat protein” value (input ligand: none) was 182 nM; the “apparent KD of MS2 coat protein” value under setting [1] stood at 182 nM; the “apparent KD of MS2 coat protein” value under setting [2] came to 152 nM; the “apparent KD of MS2 coat protein” value under setting [3] is 107 nM.
As to “UUGUAUAUGCGAAGGAGCGGGAAAUAUAUAUAUAUAAUCCUAACAUGAGGAUCACCCAUGUCCCAGGUAGGUCGCGCAUAUGUGG [12.G]”, the “apparent KD of MS2 coat protein” value (input ligand: arginine 13.2 mM) worked out at 34.6 nM; the “apparent KD of MS2 coat protein” value (input ligand: none) amounted to 58.8 nM; the “apparent KD of MS2 coat protein” value under setting [1] was determined as 65.6 nM; the “apparent KD of MS2 coat protein” value under setting [2] came to 68.3 nM; the “apparent KD of MS2 coat protein” value under setting [3] was determined as 54.9 nM.
Consider “UUUAAAUAGACGGCCGCCACUGGAAUUAAUACAUGAGGAUCACCCAUGUAGAGAGAAUAAUAAUACAGGACCGGGUCUUCAUGAA [SS Tryp B Tesla 1]”, for which the “apparent KD of MS2 coat protein” value runs as follows: (input ligand: arginine 13.2 mM) 27.2 nM; under setting [1], 22.1 nM; under setting [2], 38.9 nM.
As to “UUUACAUGAGGAUCACCCAUGUGCCAUGAUACCAGACAUGAAAAUGUCCCUUGGCAGCAUGAAUAAUCCUCGUCGGGAAACCGAC [Lisen]”, the “apparent KD of MS2 coat protein” value stood at 110 nM (input ligand: arginine 13.2 mM), 195 nM under setting [1] and 70.8 nM under setting [3].
As for “UUUACAUGAGGAUCACCCAUGUGCCAUGAUACCAGACAUGAAAAUGUCCCUUGGCAGCAUGAGUGAAGCGUCGGGAAACCGACGC [Kninicky]”, the “apparent KD of MS2 coat protein” value (input ligand: arginine 13.2 mM) came out at 57.1 nM; the “apparent KD of MS2 coat protein” value (input ligand: none) is 249 nM; the “apparent KD of MS2 coat protein” value under setting [1] stood at 229 nM; the “apparent KD of MS2 coat protein” value under setting [2] came to 297 nM; the “apparent KD of MS2 coat protein” value under setting [3] was found to be 261 nM.
The matching figures for “UUUACAUGAGGAUCACCCAUGUGCCAUGAUACCAGACAUGAAAAUGUCCCUUGGCAGCAUGGGUGUAGCGUCGGGAAACCGACGC [Kohoutovice]”: 97.5 nM, 35 nM, 545 nM, 909 nM and 14 nM.
As for “UUUACCGACACAGAUCACUAAAACCUUGAUACCAGUCCCAGUGGCGACCCUUGGCAGCAAUAUACAUGAGGAUCACCCAUGUGCA [theeternabot_exclusion_MS2_Theo_A_1]”, the “apparent KD of MS2 coat protein” value is, setting by setting: (input ligand: arginine 13.2 mM) 13.7 nM; under setting [3], 13.8 nM.
On to “UUUCUUUUCUUUCUUUCCUUUCAAACCGAAGGAGCGGGAACAAACCCAGGUAGGUCGCGGUGUGACAUGAGGAUCACCCAUGUGU [Exclusion - Arginine]”, for which the “apparent KD of MS2 coat protein” value by setting is: (input ligand: arginine 13.2 mM) 65.5 nM; (input ligand: none) 78 nM; under setting [1], 106 nM; under setting [2], 85 nM; under setting [3], 58.1 nM.
With “UUUGAUAGGACAGAUACCAGCGUGUUGUUGAACAUGAGGAUCACCCAUGUAGUGAUCAAGCGCCCUUGGCAGCUGGUUUGUUAGG [7.M]”, the “apparent KD of MS2 coat protein” value is 95.5 nM (input ligand: arginine 13.2 mM), 240 nM under setting [1] and 302 nM under setting [3].
The matching figures for “UUUUAACAUGAGGAUCACCCAUGUAAUGAUACCAGAGACGAAAGUCUCCCUUGGCAGCAUAUAUCAUUACUCAUAGGAAACUAUG [Theophylline A 6]”: 35.4 nM, 23.5 nM and 13.6 nM.
As for “UUUUCAGGGUCGGCCGCCACUGGUAUGGCGAGUCCUCGAACAAACAUGAGGAUCACCCAUGUGAACAGGACCGGGACAGCAUGGG [Exclusion Tryptophan B GF 21]”, the “apparent KD of MS2 coat protein” value reads like this: (input ligand: arginine 13.2 mM) 97.2 nM; (input ligand: none) 380 nM; under setting [1], 538 nM; under setting [2], 645 nM; under setting [3], 286 nM.
The matching figures for “UUUUUCGCGGGUGAUACCAGCAAAGUUGUACUGGUCUGGUACAUGAGGAUCACCCAUGUUUGCCCUUGGCAGCGCUCGGGAGAAG [#22 Exclusion-TheophyllineB]”: 33.2 nM, 21 nM, 39.2 nM, 32.7 nM and 23.5 nM.
